According to the RNAGym collection of RNA variant scans (doi:10.1073/pnas.2313332121):
Variants at the floor of the assay were thinned out.

B1: TPR 5TU (parent)
chain: GGAUCUUCUCGAUCUAACAAAAAAGACAAAUCUGCCACAAAGCUUGAGAGCAUCUUCGGAUGCAGAGGCGGCAGCCUUCGGUGGCGCGAUAGCGCCAACGUUCUCAACUAUGACACGCAAAACGCGUGCUCCGUUGAAUGGAGUUUAUCAUG

Variants of: B1
Assay: polymerase ribozyme fitness, log enrichment relative to wild type (log ratio); higher = more active; in vitro selection for triplet polymerase activity
Method in brief: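 After PCR construction and transcription, each subunit's mutant library from a heterodimeric triplet polymerase ribozyme was annealed with a biotinylated primer, the partner subunit and triplets. Incubation was frozen, at −7 °C, and extended constructs were gel-excised, bound to streptavidin beads and amplified by RT-PCR, in one selection round done in triplicate. Fitness is the logarithm of a genotype's enrichment divided by that of the wild type, from inverse-variance-weighted replicate averages of Illumina-sequenced inputs and outputs. The base of the logarithm is 2, and genotypes needed ≥10 input reads and ≥1 read per output.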

Point of comparison: GGAUCUUCUCGAUUUAACUAAAAAGACAAAUCUGCCACAAAGCUUGAGAGCAUCUUCGGAUGCAGAGGCGGCAGCCUUCGGUGACGCGAUAGCGCCAACGUUCUCAACUAUGACACGCAAAACGCGUGCUCCGUUGAAUGGAGUUUAUCAUG, “polymerase ribozyme fitness (log ratio)” value -0.945. Against it:
- GGAUCUUCUCGAUGUAACAAAAAAGACAAAUCUGCCACAAAGCUUGAGAGCAUCUUCGGAUGCAGAGGCGGCAGCCUUCGGUGGCGCGAUAGCGCCAACUUUCUCAACUAUGACACGCAAAACGCGUGCUCCGUUGAAUGGAGUUUAUCAUG — lower, ≤ -4.2
- GGAUCUUCUCGAUGCAACAAAAAAGACAAAUCUGCCACAAAGCUUGAGAGCAUCUUCGGAUGCAGAGGCGGCAGCCUUCGGUGGUGCGAUAGCGCCAACGUUCUCAACUAUGACACGCAACACGCAUGCUCCGUUGAAUGGAGUUUAUCAUG — higher, -0.0533
- GGAUCUUCUCGAUGUAACAAAAAAGACAAAUCUGCCACAAAGCUUGAGAGCAACUUCGGAUGCAGAGGCGGCAGCCUUCGGUGGCGCGAUAGCGCCAACGUUCUCAACUAUGACACGCAAAACGCGUGCUCCGUUGAAUGGAGUUUAUCAUG — lower, -2.66
- GGAUCUUCUCGAUUUUACAAAAAAGACAAAUCUGCCACAAAGCUUGAGAGCAUCUUCGGAUGCAGAGGCGGCAGCCUUCGAUGGCGCGAUAGCGCCAACGUUCUCAACUAUGACACGCAAAACGCGUGCUCCGUUGAAUGGAGUUUUUCAUG — lower, -1.35
- GGAUCUUCUCGAUGUAACAAAAAAGACAAAUCUGCCACAAAGCUUGAGAGCAUCUUCGGAUGCAGAGGCGGCAGCCUUCUGUGUCGCGAUAGCGCCAACGUUCUCAACUAUGACACGCAAAACGCGUGCUCAGUUGAAUGGAGUUUAUCAUG — lower, ≤ -4.2
- GGAUCUUCUCGAUGUAACAAAAAAGACAAAUCUGCCACAAAGCUUGAGAGCAUCUUCGGAUGCAGAGGCGGCAGCCUUCGGUGAGGCGAUAGCGCCAACGUUCUCGACUAUGACACGCAAAACGCGUGCUCCGUUGAAUGGAGUUUAUCAUG — lower, ≤ -4.2
- GGAUCUUCUCGAUUUAACAAAGAAGACAAAUCUGCCACAAAGCUUGAGAGCAUCUUCGGAUGCAGAGGCGGCAGCCUUCGGUGGCGCGAUAGCGCCAACGUUCUCAACUAUGACACGCAAAACGCGUGCUCCGUUGAAUGGAGUUUAUCAUG — lower, -3.07
- GGAUCUUCUCGAUGUAACAAAAAAGACAAAUCUGCCACAAAGCUUGAGAGCAUCUACGGCUGCAGAGGCGGCAGCCUUCGGUGGCGCCAUAGCGUCAACGUUCUCAACUAUGACACGCAAAACGCGUGCUCCGUUGAAGAGAGUUUAUCAUG — lower, ≤ -4.2
- GGAUCUUCUCGAUUUAUCAAAAAAGACAAAUCUGCCAGAAAGCUUGAGAGCAUCUUCGGUUGCAGAGGCGGCAGCCUUCGGUGGCGCGAUAGCGCCAACGUUCUCAACUAUGACACGCAAAACGCGUGCUCCGUUGAAUGGAGUUUAUCAUG — lower, -2.73
- GGAUCUUCUCGAUGUAACAAAAAAGACAAAUCUGCCACAAAGCUUGAGAGCAUCAUCGGAUGCAGAGGCGGCAGCCUUCGGUGGCGCGAUAGCGCCAACGUUCUCAACUAUGACACGCAAAACGCGUGCUCCGUUGAAUGGAGUUUAUCAUG — lower, -2.86
- GGAUCUUCUCGAUGUAACAAAAAAGACAAAUCUGCCACAAAGCUUGAGAGCAUCUUCGGAUGCAGAGGCGGCAGCCGUCUGUGGAGCGAUAGCGCCAACGUUCUCAACUAUGACACGCAAAACGCGUGCUCCGUUGAAUGGAGUUUAUCAUG — lower, ≤ -4.2
- GGAUCUUCUCGAUGUAACAAAAAAGACAAAUCUGCCACAAAGCUUGAGAGCAUCUUCGGAUGCAGAGGCGGCAGCCUUCGGUGGCUCGAUAGCGCCAACGUUCUCAACUAUGACACGCAAAACGCGUGCUCCGUUGAAUGGAGUUUAUCAUG — lower, -3.77
- GGAUCUUCUCGAUGUAACAAAAAAGACAAAUCUGCCACAAAGCUUGAGAGCAUCCUAGGAUGCAGGGGCGGCAGCCUUCGAUGGUGCGAUAGCGCCAACGUUCUCAACUAUGACACGCAAAACGCGUGCUCCGUUGAAUGGAGUUUAUCAUG — lower, ≤ -4.2
- GGAUCUUCUCGAUGUAACAAAAAAGACAAAUCUGCCACAAAGCUGAAGAGCAUUUUCGGAUGCAGAGGCGGAAGCCUUCGGUGGCGCGAUAGCGCCAACGUUCUCAACUAUGACACGCAAAACGCGUGCUCCGUUGAAGGGUGUUUAUCAUG — lower, ≤ -4.2
- GGAUCUUCUCGAUGUAACAAAAAAGACAAAUCUGCCACAAAGCUUGAGAGCAUCUUCGGAUGCAGAGGCGGCAGCCUUCAGUGGCGCGAUAGCGCCAACGUUCUCAACUAUGACACGCAAAACGCGUGCUCCGUUGAAUGGAGUUUAUCAUG — lower, -1.72
- GGAUCUUCUCGAUGCAACAAAAAAGACAAAUCUGCCAUAAAGCUUGAGAGCAUCUUCGGAUGCAGAGGCGGCAGCCUUCGGUGGCGCGAUAGCGCCAACGUUCUCAACUAUGAUACGCAAAACGCGUGCUCCGUUGAAUGGAGUUUAUCAUG — lower, -2.11
- GGAUCUUCUCGAUGUAACAAAAAAGACAAAGCUGCCACAAAGCUUGAGAGCAUCUUCGGAUGCAGAGGCGGCAGCCUUCGGUGGCCCGAUAGCGCCAACGUGCUCAACUAUGACACGCAAAACGCGUGCUCCGUUGAAUGGAGUUUAUCAUG — lower, ≤ -4.2
- GGAUCUUCUCGAUUUGACAAAAAAGACAAAUCUGCCACAAAGCUUGAGAGCAUCUACGGAUGCAGAGGCGGCAGCCUUCGGUGGCGCGAUAGCGCCAACGUUCUCAACUAUGACACGCAAAACGCGUGCUCCGUUGAAUGGAGUUUAUCAUG — lower, -2.11
